Measured values reported in PMC3201810.

Target: Bacillus cereus ChbC (EIIC component of the diacetylchitobiose phosphotransferase system) (Bacillus cereus)
Assay: SEC-MALS

## Bacillus cereus ChbC (EIIC component of the diacetylchitobiose phosphotransferase system) (natural protein)
  stoichiometry N: 2
